# Measured values from patent publication US20240139351A1, “TARGETING SYSTEM WITH IMPROVED UPTAKE” (CORETAG IP B.V., priority 2021, published 2024).
# Tests used:
# [1] = system: intracellular proteins, including tubulin and actin; experiment: Affinity of cyanines towards intracellular proteins; format: binding
# Text: (§1) The present targeting molecule is very selective and very specific in binding to necrotic cells. […] For the present invention three specific cyanines are selected, namely 800CW, 800RS, and ZW-800. These molecules are found to have a high affinity towards the intracellular proteins, including tubulin and actin. […] As a result, very low concentrations c.q. amounts of the present system may be used to provide advantageous effects thereof. It is noted that apoptosis specific probes, in contrast to necrosis specific probes will also target healthy tissue as apoptosis is involved in normal tissue turnover. The present cyanine is attached to a second entity, namely a linker, wherein the linker may even be a relatively small molecule, the linker being attached to the present drug uptake improving molecule, wherein the drug uptake improving molecule is selected from aromatic compounds comprising a residue or group selected from amino acid residues, which latter molecule is attached to the chelator, wherein the chelator is typically selected from DOTA and NOTA comprising compounds (DOTA: 1,4,7,10-Tetraazacy-clododecane-1,4,7,10-tetraacetic acid and NOTA: 1,4,7-triazacyclononane-N,N′,N″-tri-acetic acid). Attached to the chelator a further entity may be attached, such as a radionuclide. […]
# [2] = Clearance of cyanines in the human body; conditions: in vivo
# Text: as §1
# NCI-H69 tumor = experiment: Biodistribution of 111In-radiolabeled compounds in mice bearing NCI-H69 tumors
# Text: CORETAG has evaluated the radiolabeling, in vitro binding, pharmacology in tumor animal model, and PET or SPECT imaging with an overall expertise in targeted radiotherapy and companion imaging diagnostic. The aim of this part is to evaluate the biodistribution of the 4 compounds below and compare it to the biodistribution of DOT-AGA-PEG4-CW800 (prior art).
# The injected activity was about 9.0 MBq.
# The NCI-H69 cell line used is a human small cell lung cancer carcinoma that was
# Tumor cells were grown at 37° C. in a humidified atmosphere (5% CO2, 95% air). The culture medium will be RPMI1640 medium containing 10% fetal calf serum. NCI-H69 tumor cells are growing as a cell suspension. For experimental use, tumor cells were harvested by centrifugation. Cells were counted and viability assessed using a 0.25% try-pan blue exclusion assay.
# Thirty-one (31) healthy female SWISS Nude (Crl:NU(Ico)-Foxn1nu) mice, 6-8 weeks old at reception, were obtained from Charles River. The injection volume was 100 μl.
# Tumors were induced by subcutaneous injection of 2×10^7 NCI-H69 cells in 200 μL of RPMI 1640 into the right flank of 31 female animals in the axis of the heart. NCI-H69 tumor cell implantation was performed 24 to 72 hours after a whole-body irradiation with a gamma-source (2 Gy, 60 Co, BioMep, France). The day of tumor induction is considered as D0.
# All imaging experiments were performed on a 4.7T horizontal magnet (PharmaS-can, Bruker Biospin GmbH, Germany) equipped with an actively shielded gradient system. All the MR images were acquired under ParaVision (PV5.1, Bruker Biospin).
# [3] = Aqueous solution concentration; format: physicochemical
compound,measurement,setting,value
CC1(C)C(=CC=C2CCCC(C=CC3=[N+](CCC[N+](C)(C)C)c4ccc(S(=O)(=O)O)cc4C3(C)C)=C2Oc2ccc(CCC(=O)O)cc2)N(CCC[N+](C)(C)C)c2ccc(S(=O)(=O)O)cc21 [ZW-800],affinity towards the intracellular proteins,[1],high affinity
same,clearance in the human body,[2],cleared in the human body specifically well
DOTAGA-LYS-(PEG4-CW800)2 [component 5],Uptake in all organs,NCI-H69 tumor; all organs,increased
same,concentration present (assessment),"NCI-H69 tumor; mouse, in vivo",too high concentration
same,uptake in tumor,NCI-H69 tumor; tumor,higher uptake
IR800CW-PEG4-NaI-DOTA-GA [component 6],forms an aqueous solution,[3],> 1 mM
same,Radioactivity in blood (comparison between components),"NCI-H69 tumor; mouse, in vivo",higher
same,dosage to all organs tested compared to components 1-4,"NCI-H69 tumor; mouse, in vivo",about twice as high
same,dosage to the tumor compared to components 1-4,"NCI-H69 tumor; mouse, in vivo",about twice as high
same,uptake in tumor,"NCI-H69 tumor; mouse, in vivo",higher uptake
same,Remaining radioactivity in whole body after 3 h,"NCI-H69 tumor; mouse, in vivo, 3 h",higher
CC1(C)C(/C=C/C2=C(Oc3ccc(S(=O)(=O)O)cc3)C(=C/C=C3/N(CCCCS(=O)(=O)O)c4ccc(S(=O)(=O)[O-])cc4C3(C)C)/CCC2)=[N+](CCCCCC(=O)O)c2ccc(S(=O)(=O)O)cc21 [800CW],affinity towards the intracellular proteins,[1],high affinity
same,clearance in the human body,[2],cleared in the human body specifically well
